From patent US20130130320, “ENZYMES” (published 2013) come the findings set out here.

Series [1] has as its system Tat (HIV-1?). Put plainly: competition.
Series [2] deals with T1, TGK (TgoT Y409G E664K) (Thermococcus gorgonarius, UniProt P56689 SEQ:1-773, Y409G,E664K).
T1 sequence: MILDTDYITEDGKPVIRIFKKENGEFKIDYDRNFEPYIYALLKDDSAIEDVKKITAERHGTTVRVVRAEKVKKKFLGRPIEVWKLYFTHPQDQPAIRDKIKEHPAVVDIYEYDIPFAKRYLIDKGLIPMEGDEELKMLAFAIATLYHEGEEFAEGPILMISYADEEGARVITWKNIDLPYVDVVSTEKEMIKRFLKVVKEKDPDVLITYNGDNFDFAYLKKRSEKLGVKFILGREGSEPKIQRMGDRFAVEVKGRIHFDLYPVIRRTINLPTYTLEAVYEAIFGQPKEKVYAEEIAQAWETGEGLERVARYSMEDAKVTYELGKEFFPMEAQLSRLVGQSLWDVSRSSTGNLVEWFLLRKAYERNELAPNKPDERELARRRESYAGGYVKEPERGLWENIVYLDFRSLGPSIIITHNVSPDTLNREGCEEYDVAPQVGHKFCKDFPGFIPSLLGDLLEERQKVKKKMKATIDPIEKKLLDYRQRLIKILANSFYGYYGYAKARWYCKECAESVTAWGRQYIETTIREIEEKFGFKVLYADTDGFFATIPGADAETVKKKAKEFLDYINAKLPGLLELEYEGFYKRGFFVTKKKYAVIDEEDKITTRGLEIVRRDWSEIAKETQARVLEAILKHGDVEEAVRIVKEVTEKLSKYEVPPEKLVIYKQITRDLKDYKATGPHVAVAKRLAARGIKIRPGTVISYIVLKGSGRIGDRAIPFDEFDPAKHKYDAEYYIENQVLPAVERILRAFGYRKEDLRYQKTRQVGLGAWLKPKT
Kind of series: EMSA; second gate mutation vs parental E664; individual mutants and Kd values not stated; Thermopol, 1 mM EDTA. Particulars: label: 5'-FITC primer, 5'-biotin template, 5' template overhang. How it is done: The reactions were mixed, heated to 94° C. for 30 sec and cooled at 0.1° C./sec to 4° C. before loading onto precooled 6% TBE gel (Invitrogen) and run for 1 h at 100V in precooled 1×TBE. Bands were quantified using a Typhoon Trio and ImageQuant and the shift fitted to y=(Bmax*x)/(Kd+x) using MatLab (The MathWorks Ltd).

miniTAR RNA: the IC50 in series [1] (IC50 of HNA aptamer T5S8-7 displacing Tat from immobilised miniTAR (CI95 1.3-2.8)) was 1.9 nM; in series [1] (IC50 of RNA aptamer R06 displacing Tat from immobilised miniTAR (CI95 166-675)), 313 nM.

B1: K0 DNA primer / TempK4 (dsDNA)
DNA 1: GCACGGCAGCACGTG
DNA 2: ACTGCGATGACTGTACTCGTCTAGTAGCACTGCACGTGCTGCCGTGC
As for B1, in series [2], the binding result is given as “binds”.

As usually defined, the IC50 is the concentration needed to halve the response being measured. Low values mean greater potency in that assay, high ones weaker potency in that assay.
